According to US20250304666A1 (ALCHEMAB THERAPEUTICS, published 2025):
Numbering of substitutions follows the chain as printed. One block for each binder: values may come before it.

Experiments:
non-reduced CFH = molecular target: T1, non-reduced CFH; test: direct ELISA on non-reduced CFH
T1 construct: also called CFH (NON-REDUCED)
T1 chain: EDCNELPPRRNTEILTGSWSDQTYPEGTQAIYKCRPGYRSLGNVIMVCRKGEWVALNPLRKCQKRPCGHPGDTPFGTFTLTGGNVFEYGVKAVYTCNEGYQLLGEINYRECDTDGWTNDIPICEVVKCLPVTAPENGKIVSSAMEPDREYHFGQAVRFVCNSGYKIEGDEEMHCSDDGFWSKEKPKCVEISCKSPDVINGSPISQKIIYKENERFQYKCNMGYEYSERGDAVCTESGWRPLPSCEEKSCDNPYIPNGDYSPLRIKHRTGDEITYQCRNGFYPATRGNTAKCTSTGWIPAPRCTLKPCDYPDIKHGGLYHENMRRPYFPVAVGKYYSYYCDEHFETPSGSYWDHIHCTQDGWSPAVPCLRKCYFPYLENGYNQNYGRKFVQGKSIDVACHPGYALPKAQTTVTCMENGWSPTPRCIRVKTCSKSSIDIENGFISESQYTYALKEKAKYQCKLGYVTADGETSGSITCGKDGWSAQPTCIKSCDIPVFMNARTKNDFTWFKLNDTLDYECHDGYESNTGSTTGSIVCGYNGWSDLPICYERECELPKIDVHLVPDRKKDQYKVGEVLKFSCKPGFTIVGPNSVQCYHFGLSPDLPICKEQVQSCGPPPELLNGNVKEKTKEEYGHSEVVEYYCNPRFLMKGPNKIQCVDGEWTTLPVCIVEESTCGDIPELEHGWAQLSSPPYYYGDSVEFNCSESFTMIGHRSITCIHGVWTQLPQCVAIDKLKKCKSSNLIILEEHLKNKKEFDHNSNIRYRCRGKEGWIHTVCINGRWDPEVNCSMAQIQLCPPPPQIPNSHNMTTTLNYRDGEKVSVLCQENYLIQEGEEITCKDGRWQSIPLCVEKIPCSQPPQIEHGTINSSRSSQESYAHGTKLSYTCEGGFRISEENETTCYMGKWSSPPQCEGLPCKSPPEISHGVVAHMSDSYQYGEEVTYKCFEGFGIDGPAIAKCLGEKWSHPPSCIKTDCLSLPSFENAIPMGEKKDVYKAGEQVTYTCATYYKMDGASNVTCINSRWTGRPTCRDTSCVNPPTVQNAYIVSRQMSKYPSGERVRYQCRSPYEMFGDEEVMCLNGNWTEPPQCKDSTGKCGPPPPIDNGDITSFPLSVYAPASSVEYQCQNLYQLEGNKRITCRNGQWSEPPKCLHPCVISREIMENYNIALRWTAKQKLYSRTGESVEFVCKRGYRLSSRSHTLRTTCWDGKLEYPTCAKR

reduced CFHR3 = molecular target: T2, reduced CFHR3 (UniProt Q02985 19-330, limits assumed); test: ELISA on reduced CFHR3
T2 sequence (looked up): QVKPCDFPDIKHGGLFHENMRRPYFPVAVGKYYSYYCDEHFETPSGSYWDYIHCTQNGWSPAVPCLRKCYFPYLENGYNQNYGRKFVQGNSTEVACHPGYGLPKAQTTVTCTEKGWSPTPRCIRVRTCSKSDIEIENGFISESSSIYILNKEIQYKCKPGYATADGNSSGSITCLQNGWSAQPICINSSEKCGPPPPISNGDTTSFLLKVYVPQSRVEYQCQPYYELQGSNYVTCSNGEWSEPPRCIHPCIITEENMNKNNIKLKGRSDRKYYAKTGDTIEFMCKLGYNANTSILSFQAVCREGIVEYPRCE

[1] = molecular target: T3, immobilised biotinylated full-length CFH (reduced) (Homo sapiens (Human), UniProt P08603 19-1231, biotinylated; reduced with 20 mM dithiothreitol); test: BLI, biotinylated reduced full-length CFH on streptavidin tips, 1:1 global fit
T3 construct: Purified endogenous full-length CFH immobilised by biotin on streptavidin BLI sensors; also called immobilised CFH; surface immobilised CFH
Protocol: Biolayer interferometry (BLI, Octet 96Red) was used to measure binding kinetics of the interactions between anti-CFH antibodies and CFH. The CFH used for kinetics measurements was purified endogenous CFH was biotinylated and reduced with 20 mM dithiothreitol (DTT). An irrelevant protein was treated in the same way as a negative control reference. The CFH or irrelevant control ligands were each immobilised via the conjugated biotin onto a set of streptavidin (SA) sensor tips. Sensors were dipped into reference kinetics buffer (Phosphate buffered saline (PBS), pH 7.4, 0.05% Tween-20, 2% w/v not fat milk powder) to achieve a steady baseline. Association was measured over 300 s by dipping the sensors into an analyte concentration series of anti-CFH antibody (33.3-2.08 nM in kinetics buffer) as well as a no analyte control (kinetics buffer only). Dissociation was measured over 1500 s by dipping the sensors into kinetics buffer only. Baseline, association and dissociation steps were all measured with sensors shaking at 800 rpm and at a temperature of 23° C. Data was analysed with Data Analysis HT 11.1.0.25 software. Data from reference sensors and analyte control were subtracted. Data was corrected by aligning y-axis to average of baseline 5 s before association, inter step correction aligned to start of baseline and using Savitzky-Golay filtering. Data was fit to a 1:1 model using association and dissociation phases and kinetic rate constants are reported for the global fit where each curve R2 is >0.9.

reduced CFHR5 = molecular target: T4, reduced CFHR5 (UniProt Q9BXR6 19-569, limits assumed); test: ELISA on reduced CFHR5
T4 sequence (looked up): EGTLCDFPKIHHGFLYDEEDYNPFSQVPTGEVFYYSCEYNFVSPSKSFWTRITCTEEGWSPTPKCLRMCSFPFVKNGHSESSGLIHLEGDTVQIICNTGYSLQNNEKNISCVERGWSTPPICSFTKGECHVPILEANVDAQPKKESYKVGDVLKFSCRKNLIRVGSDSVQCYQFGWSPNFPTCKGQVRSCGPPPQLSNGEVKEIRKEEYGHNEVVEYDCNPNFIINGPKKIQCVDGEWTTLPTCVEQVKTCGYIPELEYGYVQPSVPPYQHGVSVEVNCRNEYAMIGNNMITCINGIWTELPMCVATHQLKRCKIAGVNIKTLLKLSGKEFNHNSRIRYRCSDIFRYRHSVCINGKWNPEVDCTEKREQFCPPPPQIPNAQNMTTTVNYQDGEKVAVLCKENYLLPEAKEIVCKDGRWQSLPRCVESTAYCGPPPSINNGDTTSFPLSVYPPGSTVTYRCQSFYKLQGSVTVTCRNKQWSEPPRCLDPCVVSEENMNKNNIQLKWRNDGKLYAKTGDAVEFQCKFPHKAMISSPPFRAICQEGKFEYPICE

EC50 (read off the curve) (non-reduced CFH): ~0.2 nM
B1: ATL4717 (antibody, human IgG1, kappa, V domains shown)
VH: QVQLVESGGGMVQPGRSLRLSCAASGFTFSIYGMHWVRQAPGRGLEWVAVMSFDGKTKYYADSVKGRFTISRDNSKNTLYLQMNSLRRVDTAVYYCAKGGATAAVFDSWGQGTLVTVSS
VL: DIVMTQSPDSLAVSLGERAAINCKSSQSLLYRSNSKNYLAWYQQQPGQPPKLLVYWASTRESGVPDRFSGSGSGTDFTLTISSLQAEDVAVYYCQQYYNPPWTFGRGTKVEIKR
notes: Human IgG1; also called ATL0004717; ATL04717

binding result (reduced CFHR3): no binding (tested: 100 ug/ml) | Kd [1]: 0.85 nM | koff [1]: 0.000348 s⁻¹ | kon [1]: 409000 M⁻¹ s⁻¹ | binding result (reduced CFHR5): no binding (tested: 100 ug/ml)
B2: ATL5170 (antibody, human IgG1, kappa, V domains shown)
VH: B1 VH with M11V, I31N, R43K, M51T, R88A, V89E, F106L
VL: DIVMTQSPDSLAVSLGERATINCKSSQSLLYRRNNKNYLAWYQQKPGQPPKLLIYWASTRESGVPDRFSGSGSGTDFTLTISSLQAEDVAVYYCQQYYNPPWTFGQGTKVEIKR
notes: IgG1; also called ATL_0005170
